These results are taken from article PMC5457145 (Science Advances, 2017).

Data set [1] concerns the target T1, His6Sumo-TPR2 TPD N180A (rice, UniProt Q5NBT9 1-209, N180A).
T1 sequence (looked up): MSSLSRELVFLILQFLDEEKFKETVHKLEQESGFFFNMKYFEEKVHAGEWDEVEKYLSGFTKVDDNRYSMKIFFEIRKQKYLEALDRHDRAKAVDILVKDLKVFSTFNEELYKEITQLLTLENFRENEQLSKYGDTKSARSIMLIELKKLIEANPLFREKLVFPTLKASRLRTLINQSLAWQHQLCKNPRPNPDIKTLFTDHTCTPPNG
Description: AlphaScreen or HTRF. (In general: Alpha assays give light when donor and acceptor beads are brought close together.)

Data set [2] deals with T2, His6Sumo-TPR2 TPD L198A (rice, UniProt Q5NBT9 1-209, L198A).
T2 sequence (looked up): T1 sequence (looked up) with A180N, L198A
The experiment in a line: AlphaScreen or HTRF.

In data set [3] the target is T3, His6Sumo-TPR2 TPD N176H/R67A (rice, UniProt Q5NBT9 1-209, N176H | R67A).
T3 sequence (looked up): T1 sequence (looked up) with R67A, N176H, A180N
The experiment in a line: AlphaScreen or HTRF.

The target in data set [4] is T4, His6Sumo-TPR2 TPD L111A/L130A (rice, UniProt Q5NBT9 1-209, L111A | L130A).
T4 sequence (looked up): T1 sequence (looked up) with L111A, L130A, A180N
The experiment in a line: AlphaScreen or HTRF.

Data set [5] addresses T5, His6Sumo-TPR2 TPD N176H/Y68R (rice, UniProt Q5NBT9 1-209, N176H | Y68R).
T5 sequence (looked up): T1 sequence (looked up) with Y68R, N176H, A180N
The experiment in a line: AlphaScreen or HTRF.

Data set [6] deals with T6, His6Sumo-TPR2 TPD L179A/I195A (rice, UniProt Q5NBT9 1-209, L179A | I195A).
T6 sequence (looked up): T1 sequence (looked up) with L179A, A180N, I195A
Description: AlphaScreen or HTRF.

The target in data set [7] is T7, His6Sumo-tagged TPR2 TPD (rice, UniProt Q5NBT9 1-209).
T7 sequence (looked up): T1 sequence (looked up) with A180N
The experiment in a line: AlphaScreen or HTRF.

The target in data set [8] is T8, His6Sumo-TPR2 TPD W181A (rice, UniProt Q5NBT9 1-209, W181A).
T8 sequence (looked up): T1 sequence (looked up) with A180N, W181A
Description: AlphaScreen or HTRF.

Data set [9] has as its target T9, His6Sumo-TPR2 TPD N176H/K71A (rice, UniProt Q5NBT9 1-209, N176H | K71A).
T9 sequence (looked up): T1 sequence (looked up) with K71A, N176H, A180N
Description: AlphaScreen or HTRF.

For data set [10], the target named is T10, His6Sumo-TPR2 TPD N176H/Y68A (rice, UniProt Q5NBT9 1-209, N176H | Y68A).
T10 sequence (looked up): T1 sequence (looked up) with Y68A, N176H, A180N
Description: AlphaScreen or HTRF.

Data set [11] addresses T7, His6Sumo-tagged TPR2 TPD. The experiment in a line: AlphaScreen or HTRF. This is another data set of the same source.
Data set [12] deals with the molecule itself. The experiment in a line: crystal structure.

Positions count from the first letter of the chain named. Numbers in names are those of the source. Ends that are not written are not given here.

What is called IC50 is the concentration that inhibits the measured activity by half. The low end stands for higher potency, the high end for lower potency. As usually defined, the stoichiometry N is a count of units in the complex or per binding partner.

As for DNLIYLDLNLQDWDD (peptide, UniProt Q2RBP2 794-808, looked up, also: biotinylated, site not given here) [Biotinylated D53 EAR-2 peptide, D53(794–808)], the binding result in data set [1], in data set [2], in data set [3], in data set [4], in data set [5] and in data set [6] was “binds” in each case. Besides, the binding result in data set [7], in [8], in data set [9] and in data set [10] was “binds” throughout.
The molecule DNLIYADLNLQ (peptide, UniProt Q2RBP2 794-804, looked up) [D53 EAR-2 peptide L799A] gave an IC50 in [11] of 14.3 µM.
Take DNLIYLDLNLA (peptide, UniProt Q2RBP2 794-804, looked up) [D53 EAR-2 peptide Q804A]: the “fold increase of the strength of the interaction against wild-type EAR-2” value in [11] was above 3 fold.

B1: TPR2 TPD, TPR2(1–209), untagged (domain or fragment, rice, UniProt Q5NBT9 1-209, looked up)
chain: T1 sequence (looked up) with A180N
Take B1: the “stoichiometry N” value in data set [12] was 4.

B2: TPR2 TPD L111A/L130A, untagged (domain or fragment, rice, UniProt Q5NBT9 1-209, looked up)
chain: T1 sequence (looked up) with L111A, L130A, A180N
Take B2: in [12], the binding result is “binds”.
